Experimental data: the supplement of paper PMC12764529
± gives the half width of the 95% confidence interval.

experiment: folding stability dG unfold from chymotrypsin proteolysis; higher = more stable
In short: (§1)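 Bayesian fitting of sequencing counts gave K50 for each design. Unfolding free energy followed by setting this against a sequence-predicted unfolded-state K50 and a shared folded-state K50, either per protease or with trypsin and chymotrypsin combined. The designs, under 80 residues and lacking cysteine, were digested in a PA-tagged cDNA display format at 11 threefold-diluted protease concentrations and without protease, and only those with AlphaFold2 dimer inter-PAE above 15 were kept.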

Sequence | folding stability dG unfold
SAGMDPDDPDYMIFINLDIKLEVEPDPDNGKPYVKLEIRITNIMVFDPDNGKMEMEPIEIEMTLPPDDISAG [r5_270_TrROS] | 3.09 ± 0.17 kcal/mol
SAMYTLRTISYDPNTGVRKLELTVDPAHPDRPVPEAVTQAVADAYAAQGWSVTVTRHPDGSVVIDVPVPSAG [r14_865_JUSTAS] | 1.86 ± 0.027 kcal/mol
SAGGSAGGSAGGSSAKDILDELKGITFFHPNGRRYRITDVEIEPHGDGWVLSIEMEPYPSAGGSAGGSAGGS [r4_299_TrROS] | 3.05 ± 0.034 kcal/mol
SAGGSAMPILTDTVYEIPVDRSPDETEEEIKEYLKELLLKKLPPGTEVKLEVKFDPETGTVTVKVVSAGGSA [r15_739_JUSTAS] | 0.972 ± 0.037 kcal/mol
SAGMVIRLTSPTGSLEITITVEPDGETREAVVKAASGEEVSVIPPSVSVEEIKKRFPDVTASEEPLDLPSAG [r5_314_JUSTAS] | 0.653 ± 0.038 kcal/mol
SAGGSAGGKKLYIVKIKIKNENGEEIEITLVFETEEQLKEALESLPIKNVKIEDVEIIPLEELKSAGGSAGG [r6_296_TrROS_Hall] | 3.39 ± 0.098 kcal/mol
SAGGSAGGSMALPPDLEVRITERTVSPDGSTTTYTVERPDGTTVTLTSEAELAALRESGVVLESAGGSAGGS [r12_455_JUSTAS] | -0.137 ± 0.15 kcal/mol
SAGGSAGGSNIKIPSLQIYPNPNGYYISIKIEHEHPDPDGKKHEVEMSFMIWVPPGESLEDLFSAGGSAGGS [r12_889_TrROS] | 2.43 ± 0.049 kcal/mol
AKLPEGAKVVIEVRRADDGETRTITLDDDVTITITYDKDTGKVEVRAYVFDKNGKLVAEETLTLSLEELLSS [r1_380_TrROS_Hall] | 3.508 ± 0.017 kcal/mol
SAGGSAGGSAGGGSMPVKEEVIVEVDPTEVPVTLVTTTVVKTYPDGSVEETVTVEVKLVSAGGSAGGSAGGS [r10_598_JUSTAS] | 0.281 ± 0.059 kcal/mol
SAGGKEKIILIPAKDKEKVLELLKALADEGKTVRIINLKTGKVEEVTVDELLALAEKTNEPILIEVESAGGS [r16_263_TrROS_Hall] | 2.98 ± 0.11 kcal/mol
SAGGMTEVSEVERSVIPDEGIPVTLERVETTVTVPPTTYKDEKGEVLPPGAVVHTESTVTIEERPELSAGGS [r8_262_JUSTAS] | 0.095 ± 0.1 kcal/mol
SAGGSASTLRLIVIPPSYPNMTIEEAIKNIKIKRPDGKEFEVEVLEVIPVKDYRLLLVRIKDPIPYSAGGSA [r15_331_TrMRF] | 2.46 ± 0.071 kcal/mol
SAKMTAEELAKKLAEELAKKLGVKVKVEVEVKVEEKDGKLVIEVKIKVYNENGELIEEIKIEIVLPKEESAG [r14_708_TrROS_Hall] | 3.84 ± 0.26 kcal/mol
SMREITVTLPSEELAEELREAAEALGVEEVEVSRLPEDRLEIRIKTNSDPESVIQALKDLAEKRGLEVAASA [r9_1003_JUSTAS] | 1.66 ± 0.086 kcal/mol
SAGGSAGGSAGGITLEEILKLIKDQPPGETRMIRLPGNGYTIQIYYEDNQLEIDIEPVKDSAGGSAGGSAGG [r7_448_TrROS] | 1.57 ± 0.032 kcal/mol
SAGGSAPSSELLEEEFETEDKSNNTTIKIYKVPGTGDYLIETTTPSGKKTKLTLGPLSESEAKGLISAGGSA [r15_295_JUSTAS] | 0.32 ± 0.097 kcal/mol
SAGGSAGGGRLLIDRAFDSLEDIEEFLRELETPALVHLPDGTELFYERGDGFTEIHVIPPGELGSAGGSAGG [r6_641_TrMRF] | 1.26 ± 0.053 kcal/mol
SKKYKIKKVTIFVYKNGKVEEKEVDLTVDELKALEDAGFEVVKVEEKDGYITVVIKKDGYLVIIKIEIEPSA [r9_5_TrROS_Hall] | 3.9 ± 0.2 kcal/mol
SAGGSAGGSAGGELELEVEVDGVLVRARVELDPETDELKIELEVRPLPPPEVVFLPEDRSAGGSAGGSAGGS [r10_582_TrROS_Hall] | 0.504 ± 0.029 kcal/mol
SAMEITIEKDENGNIRITLKLDGAEIIEEKEVPPGEKEKTIKIKVDGKVLELTIKDGKIEIKEVSPEDLSAG [r14_403_TrROS_Hall] | 3.55 ± 0.1 kcal/mol

Sequence | folding stability dG unfold
SALTLEIELEFELEDGYRVTVRARLEFDPETNELTIEVEVRIEPLPPPPPPPETVLVKDENGNWHPLEDLSA [r9_898_TrROS_Hall] | 3.44 ± 0.16 kcal/mol
SAGGSADEVEITLELEVELAPGQKTLTFKLLNLPPGLKFEVEEVELKVVEEDGKLRVEATIRIKKDSAGGSA [r15_321_TrROS_Hall] | 4.34 ± 0.17 kcal/mol
SAGGSAGGSKKKKKITIEILIKLKPGESPEEIAKKLEEKLGLKVKKVEVVKENGYYLVKIEIESAGGSAGGS [r20_188_TrROS_Hall] | 3.26 ± 0.044 kcal/mol
AELEAEVVSVEEVNGETVVVVRVDGELVVRTFRPPPPRPLSLEELKRLAEELREQNPELAEEAEKLLEALAS [r1_330_TrROS_Hall] | 2.19 ± 0.11 kcal/mol
SMKSKISEIKSVEKKGNKVVVKVKIKAPKGKAYFIDSNGNIIKEVNLGKEVELEITFDSNNESFKVIVTDSA [r9_917_TrMRF] | 1.99 ± 0.032 kcal/mol
SAGGSAGGSAKTVTLTIEITNEDGKKFTAKIEVTYDEETGEFTVRIEIFDKNGKLIAEFPLSAGGSAGGSAG [r3_154_TrROS_Hall] | 5.1 ± 0.1 kcal/mol
SEKLTVTLTLTVVTTETRVTYDKETGELTVETRTEVRTLTLTVTADSEEEAKRAVQELLDALEKNPELLSSA [r9_77_TrROS_Hall] | 4.94 ± 0.13 kcal/mol
SAGGSAGGPVIEIEMPKNGFFRVKIWNPGNGKKQEYWIPPDEPDALKSLLDPGIDRVEIEPYPPSAGGSAGG [r6_640_TrROS] | 1.04 ± 0.1 kcal/mol
SGIGEMSPEEIAKRLAEELGLSGIEVSVSTEGNTLTIPVKAKDPVKNEEITITITITPENGGKIKITTAGSA [r9_1042_JUSTAS] | 0.299 ± 0.057 kcal/mol
SAGGSAGGSGIKITEYKINPETGTIEKTEIYIKPIPNTNKLKIEKKTKSIPILPDQKPDLSLDSAGGSAGGS [r12_700_TrMRF] | 0.809 ± 0.36 kcal/mol
SAGGSAGGSATTIEITLPDGTKAVTLSTTSENSILLLVTAPDSPSLGFIDKNNPNNIILLKSAGGSAGGSAG [r3_450_JUSTAS] | 0.623 ± 0.1 kcal/mol
SAGGSAGGSALELIKEIAEEHNIPVDIEPTGNKIRVEIEMPNPDGQPVKHTIEIPIPPDENQSAGGSAGGSA [r18_27_TrROS] | 1.08 ± 0.078 kcal/mol
SAGGSAGGSAGGSTPTPDGSPVEITLPDGTVVTFDPATNSITIATRTPDSVSTTPIPAAASAGGSAGGSAGG [r7_527_JUSTAS] | 1.08 ± 0.037 kcal/mol
SAGGSAMKEGKPAVEVEVTVLIELSAEEIAKLLGKEIKEGDTVLITVKVRVYPDGSVEIEIRVEKLSAGGSA [r15_91_TrROS_Hall] | 3.19 ± 0.17 kcal/mol
SAGKKKEEEKKKKEEKKKKEYYLVKVKIKNPNGEEKEIVLKAKSLEEAKKALEKLGLKVEIVEIKPIKVSAG [r5_233_TrROS_Hall] | 3.03 ± 0.11 kcal/mol
SAGPVLLELESPSGGRYRIALPPNVTEIRRVGDRFIIRLPDGFSLVIEVDEDEPPSTLNDIKILAVIPSAGG [r19_274_TrMRF] | 2.41 ± 0.045 kcal/mol
SAGGSAGGSAGPPDFQIYVDIETQRNPGNGRYYVTMKIYIGNKPIVEITIPAGEPLKIKFSAGGSAGGSAGG [r17_281_TrROS] | 3.9 ± 0.045 kcal/mol
SAGGMIPVSPEQYKAVEKLLKEGKDGSTVLVKTEDGRYIEIDPAGTARFFGDKPKEFPLEKIKKIIPSAGGS [r16_664_TrMRF] | 0.469 ± 0.14 kcal/mol
SAGSITIDGLTPDKEQEVKITVTLPLPGGGTVTLELTAKVTYDPATGLAKMPITLPDGTVLPLTLPLPESAG [r5_743_JUSTAS] | 1.93 ± 0.074 kcal/mol
SAGGKTIVVPEKDVEKLLKELEKLGFKVTKVERKDGYVTVTIEVEKDGKLEKIEIRIYRPEDLDKPPSAGGS [r8_307_TrROS_Hall] | 2.28 ± 0.06 kcal/mol

experiment: folding stability dG unfold from trypsin proteolysis; higher = more stable
In short: as §1

Sequence | folding stability dG unfold
SAGMDPDDPDYMIFINLDIKLEVEPDPDNGKPYVKLEIRITNIMVFDPDNGKMEMEPIEIEMTLPPDDISAG [r5_270_TrROS] | 1.3 ± 0.083 kcal/mol
SAMYTLRTISYDPNTGVRKLELTVDPAHPDRPVPEAVTQAVADAYAAQGWSVTVTRHPDGSVVIDVPVPSAG [r14_865_JUSTAS] | 1.84 ± 0.031 kcal/mol
SAGGSAGGSAGGSSAKDILDELKGITFFHPNGRRYRITDVEIEPHGDGWVLSIEMEPYPSAGGSAGGSAGGS [r4_299_TrROS] | 2.05 ± 0.057 kcal/mol
SAGGSAMPILTDTVYEIPVDRSPDETEEEIKEYLKELLLKKLPPGTEVKLEVKFDPETGTVTVKVVSAGGSA [r15_739_JUSTAS] | 1.96 ± 0.12 kcal/mol
SAGMVIRLTSPTGSLEITITVEPDGETREAVVKAASGEEVSVIPPSVSVEEIKKRFPDVTASEEPLDLPSAG [r5_314_JUSTAS] | 0.518 ± 0.037 kcal/mol
SAGGSAGGKKLYIVKIKIKNENGEEIEITLVFETEEQLKEALESLPIKNVKIEDVEIIPLEELKSAGGSAGG [r6_296_TrROS_Hall] | 1.88 ± 0.051 kcal/mol
SAGGSAGGSMALPPDLEVRITERTVSPDGSTTTYTVERPDGTTVTLTSEAELAALRESGVVLESAGGSAGGS [r12_455_JUSTAS] | 0.227 ± 0.086 kcal/mol
SAGGSAGGSNIKIPSLQIYPNPNGYYISIKIEHEHPDPDGKKHEVEMSFMIWVPPGESLEDLFSAGGSAGGS [r12_889_TrROS] | 2.1 ± 0.078 kcal/mol
AKLPEGAKVVIEVRRADDGETRTITLDDDVTITITYDKDTGKVEVRAYVFDKNGKLVAEETLTLSLEELLSS [r1_380_TrROS_Hall] | 1.77 ± 0.027 kcal/mol
SAGGSAGGSAGGGSMPVKEEVIVEVDPTEVPVTLVTTTVVKTYPDGSVEETVTVEVKLVSAGGSAGGSAGGS [r10_598_JUSTAS] | 0.818 ± 0.085 kcal/mol
SAGGKEKIILIPAKDKEKVLELLKALADEGKTVRIINLKTGKVEEVTVDELLALAEKTNEPILIEVESAGGS [r16_263_TrROS_Hall] | 3.69 ± 0.18 kcal/mol
SAGGMTEVSEVERSVIPDEGIPVTLERVETTVTVPPTTYKDEKGEVLPPGAVVHTESTVTIEERPELSAGGS [r8_262_JUSTAS] | 0.22 ± 0.036 kcal/mol
SAGGSASTLRLIVIPPSYPNMTIEEAIKNIKIKRPDGKEFEVEVLEVIPVKDYRLLLVRIKDPIPYSAGGSA [r15_331_TrMRF] | 2.32 ± 0.058 kcal/mol
SAKMTAEELAKKLAEELAKKLGVKVKVEVEVKVEEKDGKLVIEVKIKVYNENGELIEEIKIEIVLPKEESAG [r14_708_TrROS_Hall] | 2.92 ± 0.35 kcal/mol
SMREITVTLPSEELAEELREAAEALGVEEVEVSRLPEDRLEIRIKTNSDPESVIQALKDLAEKRGLEVAASA [r9_1003_JUSTAS] | 1.73 ± 0.074 kcal/mol
SAGGSAGGSAGGITLEEILKLIKDQPPGETRMIRLPGNGYTIQIYYEDNQLEIDIEPVKDSAGGSAGGSAGG [r7_448_TrROS] | 1.06 ± 0.029 kcal/mol
SAGGSAPSSELLEEEFETEDKSNNTTIKIYKVPGTGDYLIETTTPSGKKTKLTLGPLSESEAKGLISAGGSA [r15_295_JUSTAS] | 0.0974 ± 0.023 kcal/mol
SAGGSAGGGRLLIDRAFDSLEDIEEFLRELETPALVHLPDGTELFYERGDGFTEIHVIPPGELGSAGGSAGG [r6_641_TrMRF] | 0.277 ± 0.072 kcal/mol
SKKYKIKKVTIFVYKNGKVEEKEVDLTVDELKALEDAGFEVVKVEEKDGYITVVIKKDGYLVIIKIEIEPSA [r9_5_TrROS_Hall] | 2.73 ± 0.18 kcal/mol
SAGGSAGGSAGGELELEVEVDGVLVRARVELDPETDELKIELEVRPLPPPEVVFLPEDRSAGGSAGGSAGGS [r10_582_TrROS_Hall] | 0.576 ± 0.072 kcal/mol
